Reference: US20190352359A1 (IMMATICS BIOTECHNOLOGIES, published 2019)

Columns and labels:
HLA-A*24 [1] = molecular target: T1, HLA-A*24; test: UV peptide-exchange ELISA (anti-b2m); yield grade + = >10%
T1 construct: Monomers captured on streptavidin plates; also called peptide-receptive MHC molecules; MHC complexes
Text: (§1) Candidate peptides for T cell based therapies according to the present invention were further tested for their MHC binding capacity (affinity). The individual peptide-MHC complexes were produced by UV-ligand exchange, where a UV-sensitive peptide is cleaved upon UV-irradiation, and exchanged with the peptide of interest as analyzed. Only peptide candidates that can effectively bind and stabilize the peptide-receptive MHC molecules prevent dissociation of the MHC complexes. To determine the yield of the exchange reaction, an ELISA was performed based on the detection of the light chain (p2m) of stabilized MHC complexes. The assay was performed as generally described in Rodenko et al. (Rodenko et al., 2006)
(§2) 96 well MAXISorp plates (NUNC) were coated over night with 2 ug/ml streptavidin in PBS at room temperature, washed 4× and blocked for 1 h at 37° C. in 2% BSA containing blocking buffer. Refolded HLA-A*02:01/MLA-001 monomers served as standards, covering the range of 15-500 ng/ml. Peptide-MHC monomers of the UV-exchange reaction were diluted 100-fold in blocking buffer. Samples were incubated for 1 h at 37° C., washed four times, incubated with 2 ug/ml HRP conjugated anti-β2m for 1h at 37° C., washed again and detected with TMB solution that is stopped with […]. Absorption was measured at 450 nm. Candidate peptides that show a high exchange yield (preferably higher than 50%, most preferred higher than 75%) are generally preferred for a generation and production of antibodies or fragments thereof, and/or T cell receptors or fragments thereof, as they show sufficient avidity to the MHC molecules and prevent dissociation of the MHC complexes.

HLA-A*24 [2] = molecular target: T1, HLA-A*24; test: UV peptide-exchange ELISA (anti-b2m); yield grade +++ = >50
Text: as §1, §2

Binder	peptide exchange yield (HLA-A*24 [1]) [%]	peptide exchange yield (HLA-A*24 [2]) [%]
TYFFVANKY (also called TYFFVANKY) [MMP1-011]	10 to 20	
RRLWAYVTI (also called RRLWAYVTI) [ITIH6-002]	10 to 20	
IYPHGVTFSP (also called IYPHGVTFSP) [F5-004]	10 to 20	
MFQEMLQRL (also called MFQEMLQRL) [TRIML2-001]	10 to 20	
KDQPQVPCVF (also called KDQPQVPCVF) [NAT1-001]	10 to 20	
MMALWSLLHL (also called MMALWSLLHL) [ZAC-001]	10 to 20	
YQVAKGMEF (also called YQVAKGMEF) [FLT3-014]	10 to 20	
VYFVQYKIM (also called VYFVQYKIM) [IL22RA2-001]	10 to 20	
KVVSGFYYI (also called KVVSGFYYI) [CCR8-003]	10 to 20	
KLRALSILF (also called KLRALSILF) [PTP-039]	10 to 20	
RVHANPLLI (also called RVHANPLLI) [APOB-081]	10 to 20	
KQHAWLPLTI (also called KQHAWLPLTI) [TCL1A-003]	10 to 20	
QHAWLPLTI (also called QHAWLPLTI) [TCL1A-004]	10 to 20	
GTGKLFWVF (also called GTGKLFWVF) [BTL-003]	10 to 20	
KYKNPYGF (also called KYKNPYGF) [MMP20-001]	10 to 20	
SYIVDGKII (also called SYIVDGKII) [PSG9-001]	10 to 20	
QFYSTLPNTI (also called QFYSTLPNTI) [ROS-009]	10 to 20	
VTPKMLISF (also called VTPKMLISF) [OR5H8P-001]	10 to 20	
VQADAKLLF (also called VQADAKLLF) [C20-002]	10 to 20	
ATATLHLIF (also called ATATLHLIF) [PCD-007]	10 to 20	
LIFALALAAF (also called LIFALALAAF) [GAST-001]	10 to 20	
SHSDHEFLF (also called SHSDHEFLF) [ARSH-001]	10 to 20	
KQVIGIHTF (also called KQVIGIHTF) [SFMBT1-002]	10 to 20	
FPPTPPLF (also called FPPTPPLF) [BCL11A-002]	10 to 20	
ISFSDTVNVW (also called ISFSDTVNVW) [ITIH6-001]	10 to 20	
IVTFMNKTLGTF (also called IVTFMNKTLGTF) [ADAM29-001]	10 to 20	
FYIVTRPLAF (also called FYIVTRPLAF) [SUCN-002]		50 to 75
TDWSPPPVEF (also called TDWSPPPVEF) [FAM178B-001]		50 to 75
LQIPVSPSF (also called LQIPVSPSF) [MAGEC1-004]	10 to 20	
KVWSDVTPLTF (also called KVWSDVTPLTF) [MMP11-023]		50 to 75
